Here are results for one molecule from article PMC12097149.

For experiment [1], the target named is mouse CARMIL2 Q538E (untagged, CARMIL2^QE) (mouse). The experiment in a line: co-IP; Immunoprecipitation with anti-CARMIL2 (EM-53) from lysates of short-term expanded mouse CD8+ (OT-I) and CD4+ T cells (Carmil2^QE, Carmil2^QE Cd28-/-), immunoblot with anti-CARMIL2 and anti-CARD11; cells untreated or treated with pervanadate for 2 and 5 min at 37°C. A general note: A western blot detects proteins with antibodies after separation by electrophoresis.

The target in experiment [2] is mouse CARMIL2 Q538E tagged with a Twin-Strep-tag at the N terminus (CARMIL2^QE-OST) (mouse). The experiment in a line: affinity purification with mass spectrometry; OST-tagged CARMIL2 purified on Strep-Tactin Sepharose beads from lysates of short-term expanded mouse CD4+ T cells, untreated or treated with pervanadate for 2, 5 and 10 min; label-free quantitative MS, interaction stoichiometries.

B1: mouse CARD11 (natural protein)
chain: MPGGGPAMDDYMETLKDEEEALWDNVECNRHMLSRYINPAKLTPYLRQCKVIDEQDEDEVLNAPMLPSKINRAGRLLDILHTKGQRGYVVFLESLEFYYPELYKLVTGKEPTRRFSTIVVEEGHEGLTHFLMNEVIKLQQQVKAKDLQRCELLAKSRQLEDEKKQLSLIRVELLTFQERYYKMKEERDSYNDELVKVKDDNYNLAMRYAQLSEEKNMAVMRSRDLQLEIDQLKHRLNKMEEECKLERNQSLKLKNDIENRPRKEQVLELERENEMLKTKIQELQSIIQAGKRSLPDSDKAILDILEHDRKEALEDRQELVNKIYNLQEEVRQAEELRDKYLEEKEDLELKCSTLGKDCEMYKHRMNTVMLQLEEVERERDQAFHSRDEAQTQYSQCLIEKDKYRKQIRELEEKNDEMRIEMVRREACIVNLESKLRRLSKDNGSLDQSLPRHLPATIISQNLGDTSPRTNGQEADDSSTSEESPEDSKYFLPYHPPRRRMNLKGIQLQRAKSPISMKQASEFQALMRTVKGHEEDFTDGSPSSSRSLPVTSSFSKMQPHRSRSSIMSITAEPPGNDSIVRRCKEDAPHRSTVEEDNDSCGFDALDLDDENHERYSFGPPSIHSSSSSHQSEGLDAYDLEQVNLMLRKFSLERPFRPSVTSGGHVRGTGPLVQHTTLNGDGLITQLTLLGGNARGSFIHSVKPGSLAERAGLREGHQLLLLEGCIRGERQSVPLDACTKEEARWTIQRCSGLITLHYKVNHEGYRKLLKEMEDGLITSGDSFYIRLNLNISSQLDACSMSLKCDDVVHVLDTMYQDRHEWLCARVDPFTDQDLDTGTIPSYSRAQQLLLVKLQRLVHRGNREEADSAHHTLRSLRNTLQPEEMLSTSDPRVSPRLSRASFFFGQLLQFVSRSENKYKRMNSNERVRIISGSPLGSLSRSSLDATKLLTEKHEELDPENELSRNLTLIPYSLVRAFHCERRRPVLFTPTMLAKTLVQKLLNSGGAMEFTICKSDIVTRDEFLRKQKTETIIYSREKNPNTFECIVPANIEAVAAKNKHCLLEAGIGCVRDLIKCKVYPIVLLIRVSEKNIKRFRKLLPRPETEEEFLRVCRLKEKELEALPCLYATVEAEMWSSVEELLRVLKDKIVEEQRKTIWVDEDQL
In turn, B1 returned a fold lower level of complexes in unstimulated Carmil2^QE Cd28-/- CD4+ T cells than in unstimulated Carmil2^QE CD4+ T cells in experiment [1] of 2 fold. In addition, in experiment [2], the fold increase of the interaction stoichiometry after T cell activation over that in resting cells was found to be 7 fold and the percent of the available CARMIL2^QE-OST molecules complexed to CARD11 after 2 min of activation was found to be 12%.
